Measurements published in the supplement of paper PMC10567573.

B1: CDKN1A (parent)
chain: GRKRRQTSMTDFYHSKRRLIFSKR
B2: SLC6A17 (parent)
chain: KAVEEELDAEDRPAWNSKLQYILA

Variants of: B1
Assay: protein stability index of a GFP-peptide fusion (GPS, HEK-293T) (PSI 1-6); higher = more stable
Conditions: c terminus: a fixed tail appended
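Also: lentivirally expressed fusions sorted by FACS into six bins by GFP to DsRed ratio, PSI derived from sequencing read proportions per bin multiplied by bin number.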

In order of rising protein stability index:
1. R18Q  1.47
2. K23Q  1.58
3. T10A  1.75
4. S8P  1.76
5. D11H  1.82
6. R18M  1.86
7. M9T  1.91
8. S15M  1.92
9. F21P  1.99
10. R2A  2.05
11. Q6A  2.06
12. D11Y  2.07
13. T7D  2.1
14. Q6D  2.1
15. T10W  2.16
16. K3P  2.16
17. S22D  2.17
18. D11T  2.2
19. D11W  2.21
20. R24T  2.21
21. T7E  2.22
22. R24F  2.24
23. Q6S  2.25
24. K16F  2.28
25. R17W  2.28
26. D11L  2.29
27. I20W  2.3
28. F12C  2.3
29. M9C  2.34
30. S8Y  2.35
31. F12K  2.36
32. D11A  2.37
33. R18C  2.37
34. T10M  2.38
35. T7I  2.38
36. R4A  2.39
37. K3F  2.4
38. F21A  2.4
39. Q6R  2.4
40. R24H  2.4
41. S8A  2.41
42. H14C  2.43
43. R5S  2.44
44. S15T  2.44
45. R18T  2.45
46. S8D  2.46
47. F12Q  2.46
48. S15A  2.47
49. T10P  2.48
50. K23P  2.48
51. R18D  2.48
52. K3T  2.5
53. I20S  2.5
54. D11F  2.51
55. S22I  2.53
56. T10S  2.54
57. S22N  2.57
58. S15P  2.59
59. S8I  2.6
60. M9F  2.6
61. T7M  2.6
62. R2L  2.6
63. M9K  2.62
64. R17P  2.62
65. R5F  2.64
66. R17H  2.64
67. T7Y  2.65
68. Y13K  2.66
69. R24E  2.67
70. S8M  2.68
71. S8Q  2.69
72. Y13W  2.7
73. L19G  2.71
74. T7S  2.71
75. S8R  2.72
76. R4C  2.73
77. R5N  2.74
78. R5A  2.74
79. S8E  2.74
80. K3I  2.76
81. Q6G  2.76
82. R18N  2.76
83. R17C  2.76
84. L19R  2.77
85. R18S  2.77
86. R4M  2.77
87. F12T  2.78
88. R18F  2.78
89. R2D  2.78
90. T7L  2.79
91. Q6I  2.79
92. Y13V  2.79
93. R18G  2.8
94. R2T  2.8
95. G1A  2.81
96. L19C  2.81
97. K3V  2.83
98. I20D  2.84
99. T10G  2.85
100. G1L  2.86
101. I20M  2.86
102. R5Q  2.87
103. K23W  2.87
104. T7C  2.87
105. S22T  2.87
106. T10H  2.93
107. I20C  2.93
108. R18V  2.93
109. K16Y  2.93
110. G1I  2.94
111. M9V  2.96
112. K16H  2.96
113. R17I  2.97
114. K3Q  2.98
115. G1Y  2.99
116. K16N  2.99
117. F21H  3
118. G1E  3.02
119. S15F  3.02
120. H14L  3.02
121. Y13G  3.02
122. R17T  3.02
123. R5I  3.03
124. F12G  3.04
125. M9R  3.05
126. R2S  3.05
127. G1D  3.06
128. D11S  3.06
129. F21L  3.08
130. M9S  3.08
131. R17M  3.08
132. T7K  3.09
133. I20F  3.1
134. D11M  3.13
135. R18L  3.13
136. R24A  3.13
137. F21K  3.14
138. F12D  3.14
139. R5H  3.17
140. K3L  3.18
141. R24L  3.19
142. R17S  3.19
143. R24Q  3.2
144. M9H  3.21
145. F21T  3.22
146. R2V  3.22
147. Y13H  3.22
148. R24P  3.22
149. R4D  3.24
150. L19W  3.25
151. R2F  3.25
152. Y13N  3.25
153. F12A  3.27
154. Y13F  3.27
155. R24D  3.29
156. S8T  3.3
157. L19S  3.31
158. G1K  3.34
159. Q6T  3.34
160. R4Y  3.36
161. M9W  3.37
162. F21Y  3.38
163. F12V  3.38
164. R17N  3.38
165. K16C  3.39
166. S15R  3.43
167. G1C  3.45
168. H14E  3.45
169. I20A  3.46
170. R17Q  3.46
171. F21M  3.48
172. I20N  3.51
173. H14R  3.52
174. R24G  3.52
175. K3C  3.54
176. K3H  3.57
177. F21C  3.58
178. R4G  3.58
179. H14N  3.62
180. R24S  3.62
181. R5T  3.64
182. T10C  3.68
183. Y13T  3.69
184. S15W  3.71
185. Y13E  3.73
186. R17E  3.75
187. S15Y  3.78
188. F21D  3.79
189. R2M  3.79
190. K16I  3.82
191. G1W  3.87
192. Y13Q  3.92
193. R24C  3.93
194. R4T  3.95
195. K16W  3.97
196. L19M  3.98
197. S22A  3.99
198. H14Y  4
199. S22M  4.04
200. K16R  4.25
201. M9D  4.34
202. R17V  4.34
203. R4N  4.63
204. K3Y  5.28

Variants of: B2
Assay: as above
Conditions: c terminus: a fixed tail appended

In order of falling protein stability index:
1. KAVEEELDAEDRPAWNSKLQYELA  5.01
2. KAVEEELDAEDRPAWNSKLQYIEA  4.91
3. KAVEEELDAEDRPAWNSKLQYIDA  4.9
4. KAVEEELDAEDRPAWNSKLQYDLA  4.86
5. KAVEEELDAEDRPAWNSKLQPILA  4.58
6. KAVEEELDAEDRPAWNSKLQYHLA  4.5
7. KAVEEELDAEDRPAWNSKLQYPLA  4.44
8. KAVEEELDAEDRPAWNSKLQYIRA  4.42
9. KAVEEELDAEDRPAWNSKLQYNLA  4.41
10. KAVEEELDAEDRPAWNSKLQYTLA  4.4
11. KAVEEELDAEDRPAWNSKLQCILA  4.37
12. KAVEEELDAEDRPAWNSKLQYISA  4.23
13. KAVEEELDAEDRPAWNSKLQYINA  4.18
14. KAVEEELDAEDRPAWNSKLQYRLA  4.15
15. KAVEEELDAEDRPAWNSKLQYGLA  4.06
16. KAVEEELDAEDRPAWNSKLQYIGA  3.99
17. KAVEEELDAEDRPAWNSKLQAILA  3.99
18. KAVEEELDAEDRPAWNSKLQYIPA  3.97
19. KAVEEELDAEDRPAWNSKLQYYLA  3.94
20. KAVEEELDAEDRPAWNSKLQDILA  3.92
21. KAVEEELDAEDRPAWNSKLQSILA  3.92
22. KAVEEELDAEDRPAWNSKLQYITA  3.91
23. KAVEEELDAEDRPAWNSKLQYIAA  3.9
24. KAVEEELDAEDRPAWNSKLQYIKA  3.89
25. KAVEEELDAEDRPAWNSKLQYIHA  3.84
26. KAVEEELDAEDRPAWNSKLQYIQA  3.82
27. KAVEEELDAEDRPAWNSKLQYALA  3.8
28. KAVEEELDAEDRPAWNSKLQYKLA  3.78
29. KAVEEELDAEDRPAWNSKLQKILA  3.67
30. KAVEEELDAEDRPAWNSKLQYICA  3.59
31. KAVEEELDAEDRPAWNSKLQYILD  3.55
32. KAVEEELDAEDRPAWNSKLQYILG  3.52
33. KAVEEELDAEDRPAWNSKLQYILN  3.48
34. KAVEEELDAEDRPAWNSKLQNILA  3.42
35. KAVEEELDAEDRPAWNSKLQMILA  3.4
36. KAVEEELDAEDRPAWNSKLQYILR  3.27
37. KAVEEELDAEDRPAWNSKLQYILP  3.25
38. KAVEEELDAEDRPAWNSKLQYIWA  3.19
39. KAVEEELDAEDRPAWNSKLQYIVA  3.17
40. KAVEEELDAEDRPAWNSKLQHILA  3.16
41. KAVEEELDAEDRPAWNSKLQYCLA  3.13
42. KAVEEELDAEDRPAWNSKLQIILA  3.09
43. KAVEEELDAEDRPAWNSKLQYILK  3.08
44. KAVEEELDAEDRPAWNSKLQYVLA  3.04
45. KAVEEELDAEDRPAWNSKLQYIFA  3.03
46. KAVEEELDAEDRPAWNSKLQYIYA  3.01
47. KAVEEELDAEDRPAWNSKLQFILA  2.9
48. KAVEEELDAEDRPAWNSKLQYWLA  2.9
49. KAVEEELDAEDRPAWNSKLQYILT  2.85
50. KAVEEELDAEDRPAWNSKLQLILA  2.83
51. KAVEEELDAEDRPAWNSKLQYLLA  2.83
52. KAVEEELDAEDRPAWNSKLQYILS  2.82
53. KAVEEELDAEDRPAWNSKLQRILA  2.8
54. KAVEEELDAEDRPAWNSKLQQILA  2.75
55. KAVEEELDAEDRPAWNSKLQYILF  2.73
56. KAVEEELDAEDRPAWNSKLQYIIA  2.64
57. KAVEEELDAEDRPAWNSKLQYILE  2.63
58. KAVEEELDAEDRPAWNSKLQYIMA  2.6
59. KAVEEELDAEDRPAWNSKLQYILC  2.46
60. KAVEEELDAEDRPAWNSKLYYILA  2.4
61. KAVEEELDAEDRPAWNSKLQYILL  2.28
62. KAVEEELDAEDRPAWNSKLTYILA  2.25
63. KAVEEELDAEDRPAWNSKLQYILI  2.23
64. KAVEEELDAEDRPAWNSKLQYFLA  2.2
65. KAVEEELDAEDRPAWNSKLQYILY  2.18
66. KAVEEELDAEDRPAWNSKLQYILH  2.15
67. KAVEEELDAEDRPAWNSKLVYILA  2.13
68. KAVEEELDAEDRPAWNSKLQVILA  2.08
69. KAVEEELDAEDRPAWNSKLQYILM  2.06
70. KAVEEELDAEDRPAWNSKLQYILW  2.06
71. KAVEEELDAEDRPAWNSKLQYMLA  1.79
72. KAVEEELDAEDRPAWNSKLQYILV  1.68
73. KAVEEELDAEDRPAWNSKLWYILA  1.56
